These results are taken from publication doi:10.1101/2022.03.18.484873 (bioRxiv, 2022).

This test addresses original 2019-nCoV Spike RBD protein (SARS-CoV-2, original 2019-nCoV (Wuhan), UniProt P0DTC2). The test is described as follows: Luminex bead-based competitive binding assay.

B1: P2G3 human monoclonal antibody (P2G3 LS, human IgG1) (antibody, V domains shown)
VH: EVQLVESGGGLVQPGRSLRLSCAASGFRFDDYALHWVRQAPEKGLEWVSGISWNSNNIGYAESVKGRFTISRDTAKKSLYLQMNDLRAEDTALYYCVKDRHYDSSGYFVNGFDIWGQGTLVTVSA
VL: DIQLTQSPSFLSASVGDRVTVTCRASQGISSYVAWYQQKAGKAPTLLIYTASTLQSGVPSRFSGSGSGTEFTLTISSLQPEDFATYYCQQLHSYPVTFGQGTRLDIE
Turning to B1, the binding result was “binds”.

B2: P5C3 human monoclonal antibody (P5C3 LS) (antibody, V domains shown)
VH: QMQLVQSGPEVKKPGTSVKVSCKASGFTFTSSAVQWVRQARGQRLEWIGWIVVGSGNTDYAQQFQERVTITRDMSTSTAYMELSSLGSEDTAVYYCAAPNCSGGSCYDGFDLWGQGTMVTVSS
VL: EIVLTQSPGTLSLSPGERATLSCRGSQSVRSSYLGWYQQKPGQAPRLLIYGASSRATGIPDRFSGSGSGTDFTLTISRLEPEDFAVYYCQQYGSSPWTFGQGTKVEIK
Consider B2, for which the binding result is listed as “binds”.
